Experimental findings from patent US20130251642A1 (US Dept. of Health and Human Services, published 2013) are described below.

One assay addresses T1, Fc-hROR1fz (human, UniProt Q01973 165-299, limits assumed).
T1 construct: domain: Frizzled; not shown: Fc domain (human IgG1 Fc is stated for Fc-hROR1; not restated for this construct)
Description: ELISA, Fc fusion of one or two domains of human ROR1 immobilized, antibody in IgG1 format, absorbance at 405 nm.

The next assay has as its target T2, Fc-hROR1ig+fz (human, UniProt Q01973 30-299, limits assumed).
T2 construct: domain: Ig and Frizzled; not shown: Fc domain (human IgG1 Fc is stated for Fc-hROR1; not restated for this construct)
Described as above.

In assay [1] the target is T3, Fc-hROR1ig (human, UniProt Q01973 30-147, limits assumed).
T3 construct: domain: Ig; not shown: Fc domain (human IgG1 Fc is stated for Fc-hROR1; not restated for this construct)
The description is as above.

In assay [2] the target is T4, cell surface human ROR1 (human, UniProt Q01973 30-937).
T4 construct: whole, on cells; The cell type of each entry is named under assay; also called HEK 293F/hROR1; HEK 293F cells stably transfected with human ROR1
The experiment in a line: flow cytometry on primary CLL cells of one patient, IgG1 at 0.1 µg/mL. (In flow cytometry, cells or beads pass a laser one at a time.)

The target of assay [3] is T4, cell surface human ROR1. The experiment in a line: flow cytometry on primary CLL cells of one patient, IgG1 at 5 µg/mL.
In assay [4] the target is T5, hROR2-Fc (commercially available, R&D Systems) (human, UniProt Q01974 34-403).
T5 construct: Bought from R&D Systems; also called human ROR2 (hROR2-Fc); not shown: Fc part of the bought fusion
The experiment in a line: ELISA, antigen immobilized, antibody in IgG1 format, absorbance at 405 nm. In general terms: An ELISA detects its analyte on a solid surface through an enzyme-linked reagent.

Assay [5] has as its target T6, Fc-hROR1 (the three extracellular domains of human ROR1 fused to the Fc domain of human IgG1) (human, UniProt Q01973 30-406).
T6 construct: extracellular domain; also called human ROR1 (Fc-hROR1); not shown: Fc domain of human IgG1
Description: SPR on immobilized Fc-hROR1; bivalent IgG1 R11 against monovalent Fab R11.

The target of assay [6] is T4, cell surface human ROR1. The experiment in a line: flow cytometry on primary CLL cells of one patient, IgG1 at 1 µg/mL.
The target of assay [7] is T5, hROR2-Fc (commercially available, R&D …). The experiment in a line: ELISA on immobilized hROR2-Fc (Fab data not shown).
A further assay has as its target T7, Fc-hROR1fz+kr (human, UniProt Q01973 165-406, limits assumed).
T7 construct: domain: Frizzled and Kringle; also called Fc-hROR1kr+fz; Fc-ROR1fz+kr; not shown: Fc domain (human IgG1 Fc is stated for Fc-hROR1; not restated for this construct)
The experiment in a line: ELISA, Fc fusion of one or two domains of human ROR1 immobilized, antibody in IgG1 format, absorbance at 405 nm.

For assay [8], the target named is T8, Fc-hROR1kr (human, UniProt Q01973 312-391).
T8 construct: domain: Kringle; not shown: Fc domain (human IgG1 Fc is stated for Fc-hROR1; not restated for this construct)
The description is as above.

Assay [9] concerns the target T6, Fc-hROR1 (the three extracellular …). Description: SPR on immobilized Fc-hROR1; bivalent IgG1 R12 against monovalent Fab R12.
The target of assay [10] is T9, Fc-mROR1 (mouse analogue of Fc-hROR1) (mouse, UniProt Q9Z139 30-406).
T9 construct: extracellular domain; also called mouse ROR1 (Fc-mROR1); not shown: Fc domain (human IgG1 Fc is stated for Fc-hROR1; not restated for this construct)
The experiment in a line: ELISA, antigen immobilized, antibody in IgG1 format, absorbance at 405 nm.

For assay [11], the target named is T9, Fc-mROR1 (mouse analogue of Fc-hROR1). Description: SPR (Biacore X100), Fc-mROR1 immobilized on CM5 chip.
Assay [12] has as its target T3, Fc-hROR1ig. The experiment in a line: ELISA on immobilized Fc-hROR1ig (Fab data not shown).
For assay [13], the target named is T8, Fc-hROR1kr. Description: ELISA on immobilized Fc-hROR1kr (Fab data not shown).
Assay [14] concerns the target T6, Fc-hROR1 (the three extracellular …). Description: SPR on immobilized Fc-hROR1; bivalent IgG1 Y31 against monovalent Fab Y31.

T4 sequence (Q01973 30-937): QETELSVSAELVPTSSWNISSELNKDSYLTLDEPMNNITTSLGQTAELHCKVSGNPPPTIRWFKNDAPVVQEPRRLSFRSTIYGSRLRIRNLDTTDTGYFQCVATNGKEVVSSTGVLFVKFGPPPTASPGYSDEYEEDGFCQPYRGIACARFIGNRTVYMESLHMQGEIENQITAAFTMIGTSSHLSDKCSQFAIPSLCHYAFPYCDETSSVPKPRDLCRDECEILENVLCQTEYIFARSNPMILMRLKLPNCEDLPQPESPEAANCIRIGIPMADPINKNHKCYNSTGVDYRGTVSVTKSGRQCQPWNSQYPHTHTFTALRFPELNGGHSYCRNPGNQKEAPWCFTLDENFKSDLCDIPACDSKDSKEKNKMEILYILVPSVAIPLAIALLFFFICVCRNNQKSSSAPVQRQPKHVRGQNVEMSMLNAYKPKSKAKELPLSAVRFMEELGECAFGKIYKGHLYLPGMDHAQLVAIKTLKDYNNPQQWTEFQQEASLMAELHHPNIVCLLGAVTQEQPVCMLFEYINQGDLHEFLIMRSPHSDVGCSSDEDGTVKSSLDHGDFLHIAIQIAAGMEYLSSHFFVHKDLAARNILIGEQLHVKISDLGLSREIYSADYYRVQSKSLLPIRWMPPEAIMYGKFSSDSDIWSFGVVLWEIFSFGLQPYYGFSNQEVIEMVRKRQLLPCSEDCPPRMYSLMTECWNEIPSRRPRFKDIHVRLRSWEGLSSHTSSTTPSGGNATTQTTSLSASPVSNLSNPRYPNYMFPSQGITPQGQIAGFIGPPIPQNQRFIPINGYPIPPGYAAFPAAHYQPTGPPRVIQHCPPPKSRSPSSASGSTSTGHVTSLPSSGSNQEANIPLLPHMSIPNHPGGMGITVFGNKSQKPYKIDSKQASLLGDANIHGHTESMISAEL
T6 sequence (Q01973 30-406): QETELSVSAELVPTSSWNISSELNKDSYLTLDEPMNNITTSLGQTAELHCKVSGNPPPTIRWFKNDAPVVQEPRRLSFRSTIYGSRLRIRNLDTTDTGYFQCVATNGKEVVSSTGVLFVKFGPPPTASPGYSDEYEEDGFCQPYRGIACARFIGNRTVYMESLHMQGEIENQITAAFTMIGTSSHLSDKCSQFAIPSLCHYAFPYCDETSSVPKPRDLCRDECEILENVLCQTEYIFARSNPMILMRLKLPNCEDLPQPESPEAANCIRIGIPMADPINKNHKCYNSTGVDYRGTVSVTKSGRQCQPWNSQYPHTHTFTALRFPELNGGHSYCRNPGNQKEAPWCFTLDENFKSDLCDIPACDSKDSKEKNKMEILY
T8 sequence (Q01973 312-391): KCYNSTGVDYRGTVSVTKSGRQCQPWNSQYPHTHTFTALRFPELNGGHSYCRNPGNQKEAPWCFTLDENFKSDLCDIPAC
T3 sequence (Q01973 30-147 limits assumed): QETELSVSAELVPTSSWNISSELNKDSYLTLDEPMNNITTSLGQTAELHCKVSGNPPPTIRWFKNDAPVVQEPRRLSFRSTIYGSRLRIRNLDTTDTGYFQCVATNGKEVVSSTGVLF
T5 sequence (Q01974 34-403 limits assumed): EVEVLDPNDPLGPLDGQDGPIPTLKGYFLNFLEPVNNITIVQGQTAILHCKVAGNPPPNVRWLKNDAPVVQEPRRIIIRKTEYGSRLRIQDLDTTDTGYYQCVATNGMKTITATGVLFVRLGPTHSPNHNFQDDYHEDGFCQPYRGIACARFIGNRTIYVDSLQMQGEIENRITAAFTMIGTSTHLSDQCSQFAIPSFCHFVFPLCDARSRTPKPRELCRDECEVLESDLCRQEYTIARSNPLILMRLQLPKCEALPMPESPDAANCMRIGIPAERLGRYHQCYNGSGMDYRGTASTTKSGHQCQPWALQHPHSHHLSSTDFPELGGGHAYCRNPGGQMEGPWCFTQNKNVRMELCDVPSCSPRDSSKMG
T2 sequence (Q01973 30-299 limits assumed): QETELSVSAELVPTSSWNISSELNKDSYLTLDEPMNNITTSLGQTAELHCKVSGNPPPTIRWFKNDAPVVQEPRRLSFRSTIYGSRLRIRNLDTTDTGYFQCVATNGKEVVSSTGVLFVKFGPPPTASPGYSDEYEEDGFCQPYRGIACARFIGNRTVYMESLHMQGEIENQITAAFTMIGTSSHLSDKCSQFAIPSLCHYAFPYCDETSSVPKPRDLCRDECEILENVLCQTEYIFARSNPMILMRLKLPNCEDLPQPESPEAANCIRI
T9 sequence (Q9Z139 30-406): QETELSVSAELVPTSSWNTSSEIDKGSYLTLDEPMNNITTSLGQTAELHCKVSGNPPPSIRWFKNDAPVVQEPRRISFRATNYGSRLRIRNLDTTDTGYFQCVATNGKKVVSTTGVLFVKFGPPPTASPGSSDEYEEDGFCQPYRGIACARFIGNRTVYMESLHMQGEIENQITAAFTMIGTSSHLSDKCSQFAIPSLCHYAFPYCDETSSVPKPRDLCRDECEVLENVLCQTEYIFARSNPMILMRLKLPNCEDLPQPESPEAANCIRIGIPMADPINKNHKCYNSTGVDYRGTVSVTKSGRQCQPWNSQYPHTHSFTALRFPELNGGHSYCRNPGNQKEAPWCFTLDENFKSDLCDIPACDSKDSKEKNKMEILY
T1 sequence (Q01973 165-299 limits assumed): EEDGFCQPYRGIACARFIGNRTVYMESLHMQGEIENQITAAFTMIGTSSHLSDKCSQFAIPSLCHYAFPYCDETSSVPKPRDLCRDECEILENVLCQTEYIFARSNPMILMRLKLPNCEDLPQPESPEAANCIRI
T7 sequence (Q01973 165-406 limits assumed): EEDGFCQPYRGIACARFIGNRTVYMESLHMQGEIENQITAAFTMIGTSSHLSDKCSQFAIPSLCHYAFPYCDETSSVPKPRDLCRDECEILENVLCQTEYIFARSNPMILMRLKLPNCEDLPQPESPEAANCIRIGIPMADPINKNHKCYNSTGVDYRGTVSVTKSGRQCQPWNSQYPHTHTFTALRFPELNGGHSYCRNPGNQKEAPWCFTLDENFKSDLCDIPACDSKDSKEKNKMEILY

B1: chimeric rabbit/human IgG1 R11 (antibody, V domains shown)
VH: QSVKESEGDLVTPAGNLTLTCTASGSDINDYPISWVRQAPGKGLEWIGFINSGGSTWYASWVKGRFTISRTSTTVDLKMTSLTTDDTATYFCARGYSTYYCDFNIWGPGTLVTISS
VL: ELVMTQTPSSTSGAVGGTVTINCQASQSIDSNLAWFQQKPGQPPTLLIYRASNLASGVPSRFSGSRSGTEYTLTISGVQREDAATYYCLGGVGNVSYRTSFGGGTEVVVK
notes: IgG1 format from vector PIGG (human gamma 1 heavy and kappa light constant regions), four polypeptide chains, made in HEK 293F cells; Biotinylated for flow cytometry; also called IgG1 11; mAb R11
Regarding B1, the binding result (with Fc-hROR1fz; with Fc-hROR1ig+fz; with Fc-hROR1ig [1]; in assay [4]) was “no binding (tested: not given)” in each case. Also, the MFI with cell surface human ROR1 [2] stood at 6.6 MFI; with cell surface human ROR1 [3], 64.9 MFI; with cell surface human ROR1 [6], 18.1 MFI. Also, the “factor of increase of virtual affinity, IgG1 against Fab” value (“factor of increase of virtual affinity” below) in [5] came to 14 fold.

B2: chimeric rabbit/human Fab R11 (Fab, V domains shown)
VH: QSVKESEGDLVTPAGNLTLTCTASGSDINDYPISWVRQAPGKGLEWIGFINSGGSTWYASWVKGRFTISRTSTTVDLKMTSLTTDDTATYFCARGYSTYYCDFNIWGPGTLVTISS
VL: ELVMTQTPSSTSGAVGGTVTINCQASQSIDSNLAWFQQKPGQPPTLLIYRASNLASGVPSRFSGSRSGTEYTLTISGVQREDAATYYCLGGVGNVSYRTSFGGGTEVVVK
notes: Fab with human C kappa and human CH1; For SPR it was the purified Fab-(His)6 from pET11a (HA tag removed, C-terminal His6)
Regarding B2, in assay [7], the binding result was “no binding”.

B3: chimeric rabbit/human IgG1 R12 (antibody, V domains shown)
VH: QEQLVESGGRLVTPGGSLTLSCKASGFDFSAYYMSWVRQAPGKGLEWIATIYPSSGKTYYATWVNGRFTISSDNAQNTVDLQMNSLTAADRATYFCARDSYADDGALFNIWGPGTLVTISS
VL: ELVLTQSPSVSAALGSPAKITCTLSSAHKTDTIDWYQQLQGEAPRYLMQVQSDGSYTKRPGVPDRFSGSSSGADRYLIIPSVQADDEADYYCGADYIGGYVFGGGTQLTVTG
notes: IgG1 format from vector PIGG; The light chain is rabbit V lambda and human C kappa; the heavy chain has the human gamma 1 constant region; Made in HEK 293F cells; Biotinylated for flow cytometry; also called mAb R12
Consider B3, for which the binding result (in the assay with Fc-hROR1fz+kr; with Fc-hROR1kr [8]; with Fc-hROR1ig [1]; in [10]) was “no binding (tested: not given)” each time. Besides, the MFI is 89.4 MFI with cell surface human ROR1 [2], 122 MFI in the assay with cell surface human ROR1 [3] and 97.9 MFI in the assay with cell surface human ROR1 [6]. The “factor of increase of virtual affinity” value in assay [9] amounted to 5 fold.

B4: chimeric rabbit/human Fab R12 (Fab, V domains shown)
VH: QEQLVESGGRLVTPGGSLTLSCKASGFDFSAYYMSWVRQAPGKGLEWIATIYPSSGKTYYATWVNGRFTISSDNAQNTVDLQMNSLTAADRATYFCARDSYADDGALFNIWGPGTLVTISS
VL: ELVLTQSPSVSAALGSPAKITCTLSSAHKTDTIDWYQQLQGEAPRYLMQVQSDGSYTKRPGVPDRFSGSSSGADRYLIIPSVQADDEADYYCGADYIGGYVFGGGTQLTVTG
notes: The light chain is rabbit V lambda with human C kappa; SPR: purified Fab-(His)6
In the case of B4, the binding result in [11] is recorded as “no binding (tested: 1.5 to 100 nM)”; with Fc-hROR1ig [12] it was “no binding”; with Fc-hROR1kr [13], “no binding”.

B5: chimeric rabbit/human IgG1 Y31 (antibody, V domains shown)
VH: QSLEESGGRLVTPGTPLTLTCTVSGIDLNSHWMSWVRQAPGKGLEWIGIIAASGSTYYANWAKGRFTISKTSTTVDLRIASPTTEDTATYFCARDYGDYRLVTFNIWGPGTLVTVSS
VL: ELVMTQTPSSVSAAVGGTVTINCQASQSIGSYLAWYQQKPGQPPKLLIYYASNLASGVPSRFSGSGSGTEYTLTISGVQREDAATYYCLGSLSNSDNVFGGGTELEIL
notes: IgG1 format from vector PIGG (human gamma 1 heavy and kappa light constant regions), made in HEK 293F cells; Biotinylated for flow cytometry; also called mAb Y31
Consider B5, for which the binding result in the assay with Fc-hROR1ig+fz, in the assay with Fc-hROR1kr [8] and with Fc-hROR1ig [1] was “no binding (tested: not given)” in each case. For the same molecule, in assay [14], the “factor of increase of virtual affinity” value amounted to 12 fold. For the same molecule, the MFI in the assay with cell surface human ROR1 [3] was 21.6 MFI; with cell surface human ROR1 [6], 8.3 MFI.

B6: chimeric rabbit/human Fab Y31 (Fab, V domains shown)
VH: QSLEESGGRLVTPGTPLTLTCTVSGIDLNSHWMSWVRQAPGKGLEWIGIIAASGSTYYANWAKGRFTISKTSTTVDLRIASPTTEDTATYFCARDYGDYRLVTFNIWGPGTLVTVSS
VL: ELVMTQTPSSVSAAVGGTVTINCQASQSIGSYLAWYQQKPGQPPKLLIYYASNLASGVPSRFSGSGSGTEYTLTISGVQREDAATYYCLGSLSNSDNVFGGGTELEIL
notes: Fab with human C kappa and human CH1; SPR: purified Fab-(His)6
Take B6: the binding result with Fc-hROR1ig [12] and with Fc-hROR1kr [13] was “no binding” in each case.
